Test results as given in EP4806514A2 (Lepu Biopharma Co., Ltd., dated 2025).

Columns and labels:
[1] = molecular target: T1, rat CDH17-his (Sino bio, Cat. No. 80283-R08H) (rat, UniProt P55281 22-786); assay: ELISA, antigen coated at 1 ug/mL
T1 construct: Bought; also called rat CDH17 protein
T1 sequence (looked up): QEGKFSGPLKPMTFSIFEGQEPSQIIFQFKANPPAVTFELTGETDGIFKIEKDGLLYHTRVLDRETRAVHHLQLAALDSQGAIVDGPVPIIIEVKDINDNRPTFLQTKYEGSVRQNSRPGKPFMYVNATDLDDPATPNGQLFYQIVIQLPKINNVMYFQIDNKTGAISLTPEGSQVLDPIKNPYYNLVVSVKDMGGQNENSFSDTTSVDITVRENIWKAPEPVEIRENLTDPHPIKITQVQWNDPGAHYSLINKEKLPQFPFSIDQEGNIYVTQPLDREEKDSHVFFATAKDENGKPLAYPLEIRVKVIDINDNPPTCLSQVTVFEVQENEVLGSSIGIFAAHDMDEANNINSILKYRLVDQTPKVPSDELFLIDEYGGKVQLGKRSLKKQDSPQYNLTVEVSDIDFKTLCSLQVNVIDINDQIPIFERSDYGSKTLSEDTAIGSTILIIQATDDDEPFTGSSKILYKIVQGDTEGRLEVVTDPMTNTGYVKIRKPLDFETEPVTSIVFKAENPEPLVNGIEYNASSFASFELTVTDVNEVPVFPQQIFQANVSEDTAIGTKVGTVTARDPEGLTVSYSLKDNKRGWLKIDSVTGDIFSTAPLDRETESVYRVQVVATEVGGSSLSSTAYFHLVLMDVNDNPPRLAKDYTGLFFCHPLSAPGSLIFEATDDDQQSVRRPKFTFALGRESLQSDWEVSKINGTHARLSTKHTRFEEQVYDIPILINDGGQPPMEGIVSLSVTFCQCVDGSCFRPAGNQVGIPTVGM

[2] = molecular target: T2, human CDH9-his (Acro bio, Cat. No. CA9-H52H6) (human, UniProt Q9ULB4 54-615); assay: ELISA, antigen coated at 1 ug/mL
T2 construct: Bought; also called human CDH9 protein
T2 sequence (looked up): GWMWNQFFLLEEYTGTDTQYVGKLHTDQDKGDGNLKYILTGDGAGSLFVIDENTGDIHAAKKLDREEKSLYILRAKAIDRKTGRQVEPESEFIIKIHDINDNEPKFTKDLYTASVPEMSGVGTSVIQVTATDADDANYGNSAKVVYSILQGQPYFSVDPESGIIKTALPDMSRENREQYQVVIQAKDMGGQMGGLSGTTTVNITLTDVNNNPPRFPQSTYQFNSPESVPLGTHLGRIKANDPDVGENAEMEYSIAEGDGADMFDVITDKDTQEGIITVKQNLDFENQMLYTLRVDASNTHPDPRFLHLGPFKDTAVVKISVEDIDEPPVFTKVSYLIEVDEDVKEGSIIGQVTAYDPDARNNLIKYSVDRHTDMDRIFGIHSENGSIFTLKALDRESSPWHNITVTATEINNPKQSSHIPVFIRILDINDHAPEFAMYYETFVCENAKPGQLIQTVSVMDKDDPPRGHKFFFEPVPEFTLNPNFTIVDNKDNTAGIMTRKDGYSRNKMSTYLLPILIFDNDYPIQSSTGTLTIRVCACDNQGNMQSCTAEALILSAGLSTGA

[3] = molecular target: T3, human CDH3-his protein (Kactus, Cat. No. CDH-HM103) (human, UniProt P22223 108-654, limits assumed); assay: ELISA, antigen coated at 1 ug/mL
T3 construct: Bought; also called human CDH3 protein
T3 sequence (P22223 108-654 limits assumed): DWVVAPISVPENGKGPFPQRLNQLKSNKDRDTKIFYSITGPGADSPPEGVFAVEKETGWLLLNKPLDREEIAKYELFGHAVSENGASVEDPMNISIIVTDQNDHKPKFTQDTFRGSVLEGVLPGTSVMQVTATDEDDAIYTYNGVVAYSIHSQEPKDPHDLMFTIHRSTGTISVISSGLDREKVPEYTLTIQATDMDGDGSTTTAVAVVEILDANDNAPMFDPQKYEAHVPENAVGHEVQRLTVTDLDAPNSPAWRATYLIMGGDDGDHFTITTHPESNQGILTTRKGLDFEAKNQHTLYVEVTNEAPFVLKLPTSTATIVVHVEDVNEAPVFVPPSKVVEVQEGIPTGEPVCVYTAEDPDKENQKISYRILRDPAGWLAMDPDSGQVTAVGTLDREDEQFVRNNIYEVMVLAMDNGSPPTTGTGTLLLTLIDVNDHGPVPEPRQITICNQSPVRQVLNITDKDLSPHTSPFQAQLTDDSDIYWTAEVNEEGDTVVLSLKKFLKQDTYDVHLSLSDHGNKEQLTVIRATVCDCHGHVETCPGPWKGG

[4] = molecular target: T4, human CDH6-his protein (Katcus, Cat. No. CDH-HM106) (human, UniProt P55285 54-615, limits assumed); assay: ELISA, antigen coated at 1 ug/mL
T4 construct: Bought; also called human CDH6 protein
T4 sequence (looked up): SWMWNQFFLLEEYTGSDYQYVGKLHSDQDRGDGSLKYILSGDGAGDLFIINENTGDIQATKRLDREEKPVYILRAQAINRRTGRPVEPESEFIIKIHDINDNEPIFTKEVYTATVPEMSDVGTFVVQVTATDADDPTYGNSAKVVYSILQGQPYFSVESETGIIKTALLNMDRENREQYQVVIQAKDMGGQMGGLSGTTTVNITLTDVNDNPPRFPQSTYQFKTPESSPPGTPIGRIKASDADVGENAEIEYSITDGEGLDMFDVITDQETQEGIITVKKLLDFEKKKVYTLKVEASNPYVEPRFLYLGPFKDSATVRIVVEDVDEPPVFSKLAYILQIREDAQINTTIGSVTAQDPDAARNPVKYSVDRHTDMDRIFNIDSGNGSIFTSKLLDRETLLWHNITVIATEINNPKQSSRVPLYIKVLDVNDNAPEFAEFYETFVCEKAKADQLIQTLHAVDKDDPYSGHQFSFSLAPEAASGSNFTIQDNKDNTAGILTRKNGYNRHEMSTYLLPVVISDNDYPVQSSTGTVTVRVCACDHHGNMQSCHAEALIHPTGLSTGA

[5] = molecular target: T5, rhesus CDH17 overexpressed on HEK293 cells (HEK293-rhesus CDH17) (rhesus, UniProt A0A1D5R2B4 23-832); assay: flow cytometry, HEK293-rhesus CDH17 cells
T5 construct: whole, on cells
T5 sequence: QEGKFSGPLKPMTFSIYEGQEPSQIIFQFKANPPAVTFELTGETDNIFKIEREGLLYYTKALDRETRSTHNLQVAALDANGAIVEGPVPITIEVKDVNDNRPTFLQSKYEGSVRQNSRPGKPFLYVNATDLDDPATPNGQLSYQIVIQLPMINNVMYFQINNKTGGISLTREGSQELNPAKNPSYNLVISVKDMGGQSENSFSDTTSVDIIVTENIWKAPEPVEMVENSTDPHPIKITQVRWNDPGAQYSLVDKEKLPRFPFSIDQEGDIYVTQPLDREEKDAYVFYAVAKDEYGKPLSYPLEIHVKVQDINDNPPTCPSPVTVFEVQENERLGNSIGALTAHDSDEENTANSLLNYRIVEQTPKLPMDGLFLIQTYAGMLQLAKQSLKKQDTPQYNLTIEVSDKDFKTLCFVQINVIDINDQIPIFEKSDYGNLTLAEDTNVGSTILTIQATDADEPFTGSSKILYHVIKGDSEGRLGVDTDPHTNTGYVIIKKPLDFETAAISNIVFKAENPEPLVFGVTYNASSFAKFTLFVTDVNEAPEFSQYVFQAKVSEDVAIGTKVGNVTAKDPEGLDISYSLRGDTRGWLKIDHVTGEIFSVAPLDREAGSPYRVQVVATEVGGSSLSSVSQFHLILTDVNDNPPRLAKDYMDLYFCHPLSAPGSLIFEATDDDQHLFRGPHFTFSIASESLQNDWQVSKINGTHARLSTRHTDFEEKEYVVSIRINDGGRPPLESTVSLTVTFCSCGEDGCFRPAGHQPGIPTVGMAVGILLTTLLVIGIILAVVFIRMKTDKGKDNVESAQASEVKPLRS

B1: 29H8D3-z12 (antibody, V domains shown)
VH: QVQLVQSGAEVKKPGASVKVSCKASGYTFTDHTIHWMRQRPGQGLEWIGYIYPRDGYTKYNEKFKDRATLTADTSTSTAYMELRSLRSDDTAVYYCARFYYGYWYFDVWGQGTTVTVSS
VL: DIVMTQSPLSLPVTPGEPASISCRSSKSLLRSNGNTYLYWFLQKPGQSPQVLIYRMSNLASGVPDRFSGSGSGTDFTLKISRVEAEDVGVYYCMQHLEYPFTFGQGTKLEIK
notes: Humanized, human IgG1 constant region; also called 29H8D3-z12 mAb
binding result [1]: no binding (tested: titrated from 50 nM)
binding result [2]: no binding (tested: titrated from 50 nM)
binding result [3]: no binding (tested: titrated from 50 nM)
binding result [4]: no binding (tested: titrated from 50 nM)
EC50 [5]: 0.225 nM
